Experimental data from the domain aggregation screens of Martell et al. (2025).

Assay: soluble fraction after stress (log2 fold change); higher = more stays soluble; pooled small domains, quantitative proteomics
Details: stress: 50 degC
How it was run: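 Quantitative proteomics served as the high-throughput read-out for pooled custom libraries of small protein domains. Each was stressed at 50°C. Aggregation propensity is expressed as the base-two log fold change in soluble protein after stress. A higher value means a larger share of the protein remains in solution.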

Sequence | soluble fraction (log2)
HMNLRLKEVLDEKNMSLVTLSEKTGIEKGNLSAISNNKKNPTVETLSKIAKALQISLAELFESPP | 0.303
HMNLSDIETWLRELSLEKYALAFSEAEIDFETLPELTEDDLKEVGLPVGPRRKVWGAIQLLRTTD | -1.42
HMNLSNVVIRKVQEMILSGELQEGDKLPPEREMTQRLGIGRPALREGLKSLEMLGLVERRHGLGNFIINKV | -0.783
HMNLSPADFSSVRNALGLSLSTVAKESGINRNYLSNFEKKKHFLEETAKVKLRDYYMSIDPDAFAAAL | -0.177
HMNLVGGKINSLMTTKNVTIQDLSERSGLTVSQIELLLSGDKVPSLAVLIKIARGLGVRVGTFL | -1.3
HMNLVRQHTDYAFRLLVALSQAPGKPISTRTLASAADVPYQFASKIMQKLHEEGLVESVMGPFGGFRLVQ | -2.52
HMNLWIDNTQVINDWTEGASERSGSIYLTAGVKPIKMQYFDSVLNAKAILRWQGPGINKSVVPSSALTPG | -0.855
HMNMEDIADKIGRLYDNLPDDLKLMIKYRDIDDMTYDEIARKANLPIGTVRSRLHRARDILLREI | -0.647
HMNMFGIQRRNHLLSLLQEKKSITVQEAAVIFEVAEETIRRDFRTMEGQGLIVRTHGGALLADD | -2.19
HMNMMIIHVNGEKYSFQEPITISELILKLELDSRKIAIEYNLEILPRSLFEITSIKNGDKIEIVHFI | -2.37
HMNMPYGTVKWFNDAKGFGFIAPEDGSADVFVHFSAINSKGFRSLQEGQRVSYEVTTGPKGAQAAGVTPVT | -0.331
HMNMYTVTGRLVDQDGVPQANALVTIDSSSQQTRTSPQGFYLIKVFGTEPSTIKFLVDGYDPQIVNFTP | -0.21
HMNNDIDRVFAELTVLSQKKGYLVFDDIEKGTEDLSVNEVDWLTNRLLTSGVEIFDDVPDTIK | -0.205
HMNNDSQYLATLQRYYAEHRVLPSYARMLPLLGFASKAAVKKVLERLEVVGMLERTEDGDWAPSERFFER | -1.7
HMNNGYSINEIAKLMKMTLKVVRRYVASGELKTTKTNNTYSISEEAFNEFKKYIEEGGDAKHAQEVADTFK | -0.229
HMNNIGENIKKYRTKQGLSQEDFAKKSGVKYTTLTKIESGVIKKPSVLVMAKIAKALGVNIEELI | -0.0879
HMNNIINEAQIKQWVEEFYLSVSPRPTRATMIALVHKKIKEETKDGEEGQTVSETLINNFYTALEKEHKRK | -0.0384
HMNNIPFIITDERLNVIQSHLVPREVLDHPDRLRRQIDRFTEENQPKTVNYWWGPEHRHIIFYGKSK | 0.445
HMNNIYFSPVVEENNKGLRLDKFLAASFPEFSRSQLQRLILEGNVSNDDVVIADNSQKVRVGDSFQVIVPE | -0.0377
HMNNKSDLLFNHLRQRIATMENGTIFPSVRQLMTEYNVSQSTVSTAIRSLKELGLLEALSRQGMVVRKE | -0.476
HMNNLGSKIKELRIAENLTQEKLAEELNVSFQSISRWENGISTPDISLIPAIARFFGVSTDYLFGLQD | -0.384
HMNNLPDFIKQLRKENNLTQEYVASEIGVSRPTYEQIEKGKRELTISEAEKLAKIFNIPLENFLQGKKGV | 0.184
HMNNPLPDLLKYFRKKKHLTQEQVAKQLSVSRASYASYETGRIIPGMQHIMELSRILEHDFLFAYTLAVQ | -2.34

Sequence | soluble fraction (log2)
HMNNPNFAIQKYVTGSDIKRVRKTLRLTQKKFAELVGVSKATMERWETKEDKITGPVVLLLKILEDHPEY | -1.3
HMNNQKATAVKVASGIVNLRSGPATSYETLDTVATGETLSVLAEKDGWFQVSRAGRTGWVAGWVVDVIRE | -0.0645
HMNNSSIGERLKYQRKIKGYSQEELADRTNVTVRTIQRIEKEEVSPHLNTIKLLAIALDIEVDELVAL | -1.25
HMNNSVAYSTFLNDIRTNTLKDVDMTSNSETINVTKKDGTKYQTVMPMYDRDLLADLSKTDATVTGQP | 0.28
HMNNTIKFSVDIKNSGKRLDIFLSENVTQYTRSYLKRLIENSHVKLNNKILNSPSTKVKFQDQIIINNIE | -1.91
HMNNTIKFSVDTTNSGKRLDIFLAENIKQFTRSYLKKIISNNQVKLNNLVANSPSIKVKHSDLILINILE | -1.82
HMNNTVLSSVKSINMFLDANGGDAGQAFRIYNNTNPDSNPTESTYIFKVAEDGNTFVKGYLNLNGTTL | 0.014
HMNNVRIEHIDTIGTVRLHKKRGVKRVSLRIHQSGEIRVTQPLYLPFSAGVLFAKSHTEWIMKQKQK | -0.000591
HMNNWRRSLEREVTASLARGDRDIFDGLNRSFEAALITKALEHTGGRRIEAATLLGIGRNTLTRKIQDLGL | -1.83
HMNNYEGIVKSVSNSNVYIQVAGRTIGYTISPHTIIMVNGKNVPASELMPGQHVSYTNKGSKLSYININS | -0.103
HMNNYFPAYKGSATSIAPALKQMGVNNSYAYRSKIAAVNNITGYRGTPAQNTQMLNLLKQGRLIK | 0.362
HMNNYNDSVQKIINYIADNLNENLSVRKLADKMPMSVSHFNRVFQKYTGDSPYAYVMAMRIKKAKYL | 0.0162
HMNPAIYIRKNILNLTQEKLSEYLDVTQPTIHRWEESGVIPAKHQRQIREFASEKGIYWNDSWFFSIPDE | -0.953
HMNPDMIAGVLKVPAAAGRLRSALFELGVVDDESYDDDGASRLTVTASQSDLERIVAQAGLVFEDVLVERR | -0.0627
HMNPEAFIQTLKQILSTYEKNDPIYLQEIKADLVKKFRIEIPINALETYLKENGYSNIYLKR | -0.133
HMNPEDLSGVRKAAILLLTMDDEVTKDVMKGLDEEEIEAIGKEITNLKLIPDHVVHRVQEEFMTKVSK | 0.0913
HMNPESRRSELIDAATKLFFSRGYTATSIRDILDAVDDRTASPSVFYYYFESKEAIYQAVLQRYTD | -2.03
HMNPETPAQQAVRKRLIVSVQFYRRLKDTPLKAVWQVAARDTLVNGYNLFLKRNIHAFNDRTLSTPSALS | -0.0672
HMNPFPDNTAEVLSQFKNIIVPELNTGQLSKLLRARYLVDTVGINKVEGLPFTAQELEEKIESLINSF | -0.323
HMNPGQIIRKLRQDQGMTLAVLAKYANLDPGNLSRIERDDLNISFNLLEKLSLILNVSPIVFFH | -0.154
HMNPLSELSFEERRELFLEAAVRLFEEKGYKNTSVEDIAGELGFTKKVFYYYWKNKREIVQEIHDRGMA | -0.479
HMNPNFIEVSHGRLRVNVPLSAYEGTTYHIKPEEAEKLKRTLASRYPWLTPNALKVFIEEAEQAMRERIQ | -0.29
HMNPSKEFNMSDLLKAKMVGDVSAAKRREKAGALLHIGYGNAKTFLKKLNHFSISREEWDKVIAAMEEF | -0.743

Sequence | soluble fraction (log2)
HMNPSVSSDERILLQKALGILSAEQKQIVMLHAVAGIKHREIAKLLDMPIATVLSKYSRAVNKLRHAMEA | -0.423
HMNPTTDFFKLEGIDATRILVFDQVGRQVAQFSQPAQQMDIQALPAGVYALRIENADGQVYSARIVK | -0.16
HMNPVVATTIILDGEIIKDNLAEANLSEEWLLEELKRQNFNDVKEVFYAEWLDGKQLFAYPYTK | -0.224
HMNQDIIEIGNNIQKIRKKNGISQSVLAEKIDVAGNSIYRMEGATTVMGVDKLINIADALNTSPMDILPAR | 0.13
HMNQDMINFDKLSVRLKNVLIENNLKTVDSLLNYPAEEFEYLTNLGEKTLQELLTYRNELAASNNIQ | -0.289
HMNQGKLIEMLQEMKEIAHSQNNYLTKNEIANYLGDTVLSKEQLQAVYHYLGENHIEVEGYVYIP | 0.035
HMNQIATSTQAIITTLSFLNTSSIFKLPVGDTASRPTGVSPGTLRFNSQEDSAEIYKADDGTGSAGWTEVA | 0.0743
HMNQIDEATAATITTLNFLNTNSEFKIPVGDTATRPGTPAIGMMRFNSENDKAEIYVADFDGDGNPGWINL | -0.189
HMNQILDFTREVKNLPEQDKIKIVEALWSIIYSNKDADIYETNLMRRLAGLLYIDNKTMGDIKEKIKQNL | -0.601
HMNQNHFLDSVVEFAKDEASRAFFQKAVKKLGEGLVEEAMGEVKMREADGSVNSRAPYFIALLENWMENR | 0.0128
HMNQNIYVPKLEGLQIEEASSILKSKGLNIEITDSIFRKDAVPGAIIEQTPKPNSRVKTGRNIYVSIYSK | -0.0536
HMNQSEMIGSRLKEERLQQKLTLKQLSEKVGLSIGYLSQVERGYGTLSLSALKKLSSALGLEMSTFFD | -0.992
HMNQTGQYENAAKRFNQLITIDSSDKRAYLQLGISNYNLGNKEKADSLFNIIRNSKDKLLIEELDNFLT | 0.0481
HMNQYALTDREKNVLGLLVDGLSYKMIADKENISFHTVNAHVRKIYEKLHVHSLAEAVSKALKENL | -1.29
HMNQYRKLDGDVQNQIIYILSEYPKLPATIVYQRLLDTNTIVKKDVSLSTVNRFVQKYKDSKGIT | -1.05
HMNREDYIKAIFKIAEREGEASNQRIADSLGVSRASASEMVKKLIQEGFVVAEGRQLSLSAEGERIA | 0.0824
HMNREEKKALTRRQIIDVATRLFRQHGIHNTDLKTIATEAGVSVVTFYKYFDSKEALIGTIAAEQ | -0.281
HMNRNHVFDSNGPDLRLRGTAQQLFEKYLQLGRDATSGGDRVMAEGYFQHAEHYFRILNAMNQAAMQH | -0.68
HMNRPYETLFTGLTTDEASAIVGKLEEYGAADYKIEGDTIKVPAAQEPDLKAKLLLDGYPKS | 0.105
HMNRTEYMAALRRALSVLPEEERASALRYYEEYFDDAGPENEEKVIADLGAPEKVAGQILADYRE | 0.00316
HMNSDQMKEHLDNLVDMAKKNDNTLIDTEIVNYFVGKPDIELNTDMMTKIFDYLDEHHVAVLS | -0.107
HMNSEFPFNGGRIVDNVPANRLQIFFDEKPDADVRTRLKQNGFRWAPNSGAWQSYRHGYTLDWARREFNA | 0.134
